T1: human LIFRα from HEK 293 cell extracts (human, UniProt P42702 45-1097)
T1 construct: Endogenous protein from crude cell extract; also called hLIFRα
T1 sequence (looked up): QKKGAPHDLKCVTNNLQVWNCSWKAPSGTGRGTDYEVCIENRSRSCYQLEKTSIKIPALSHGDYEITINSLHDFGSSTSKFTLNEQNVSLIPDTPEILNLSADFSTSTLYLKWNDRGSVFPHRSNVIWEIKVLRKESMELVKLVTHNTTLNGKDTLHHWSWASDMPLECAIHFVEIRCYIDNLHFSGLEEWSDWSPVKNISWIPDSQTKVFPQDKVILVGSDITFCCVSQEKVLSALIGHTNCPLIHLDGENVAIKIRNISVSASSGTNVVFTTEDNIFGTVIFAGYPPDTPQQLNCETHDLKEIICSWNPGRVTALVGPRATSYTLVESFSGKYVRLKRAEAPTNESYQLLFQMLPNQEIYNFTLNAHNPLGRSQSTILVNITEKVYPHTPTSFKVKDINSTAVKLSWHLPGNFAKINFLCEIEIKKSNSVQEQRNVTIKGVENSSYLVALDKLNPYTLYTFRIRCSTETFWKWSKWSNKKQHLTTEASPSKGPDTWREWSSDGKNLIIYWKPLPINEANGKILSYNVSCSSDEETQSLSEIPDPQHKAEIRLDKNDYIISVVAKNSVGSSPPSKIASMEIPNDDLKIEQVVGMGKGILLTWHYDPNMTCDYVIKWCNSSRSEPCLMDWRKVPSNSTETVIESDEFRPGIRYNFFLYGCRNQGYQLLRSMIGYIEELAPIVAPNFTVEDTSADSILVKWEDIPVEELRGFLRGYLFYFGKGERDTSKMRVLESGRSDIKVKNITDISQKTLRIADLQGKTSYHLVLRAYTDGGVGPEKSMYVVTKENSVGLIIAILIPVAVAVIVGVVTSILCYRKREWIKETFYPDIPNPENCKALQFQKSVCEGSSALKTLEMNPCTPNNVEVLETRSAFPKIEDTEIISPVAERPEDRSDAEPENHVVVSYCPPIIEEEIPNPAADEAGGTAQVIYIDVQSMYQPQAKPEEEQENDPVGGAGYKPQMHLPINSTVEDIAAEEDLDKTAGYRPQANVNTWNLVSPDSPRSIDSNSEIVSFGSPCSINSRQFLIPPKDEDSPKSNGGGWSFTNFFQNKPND

T2: V5-His-tagged murine soluble LIFR, secreted by HEK 293 cells (mouse, UniProt P42703-2 44-719, limits assumed)
T2 construct: Used as culture supernatant; also called msLIFR; murine soluble LIFRα; not shown: V5-His tag
T2 sequence (looked up): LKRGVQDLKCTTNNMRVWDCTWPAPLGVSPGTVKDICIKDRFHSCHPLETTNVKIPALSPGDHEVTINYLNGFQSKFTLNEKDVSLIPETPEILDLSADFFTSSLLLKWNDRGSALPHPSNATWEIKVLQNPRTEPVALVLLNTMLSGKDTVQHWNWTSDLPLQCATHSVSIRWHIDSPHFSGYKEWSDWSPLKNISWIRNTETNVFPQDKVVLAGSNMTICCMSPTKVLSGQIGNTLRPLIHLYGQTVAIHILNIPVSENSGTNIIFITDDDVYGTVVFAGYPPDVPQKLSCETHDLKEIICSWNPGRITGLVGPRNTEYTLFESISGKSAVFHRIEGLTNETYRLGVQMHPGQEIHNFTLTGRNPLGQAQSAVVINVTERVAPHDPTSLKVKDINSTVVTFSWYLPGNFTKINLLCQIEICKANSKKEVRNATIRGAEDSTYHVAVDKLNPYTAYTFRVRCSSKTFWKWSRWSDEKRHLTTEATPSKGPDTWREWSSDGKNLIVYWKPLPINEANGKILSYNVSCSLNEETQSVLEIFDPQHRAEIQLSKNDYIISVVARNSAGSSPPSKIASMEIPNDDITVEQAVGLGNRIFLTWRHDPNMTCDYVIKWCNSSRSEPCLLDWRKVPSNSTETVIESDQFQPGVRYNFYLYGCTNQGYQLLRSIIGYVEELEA


Experiments:
[1] = target: T1, human LIFRα from HEK 293 cell extracts; experiment: GST pull-down, HEK cell extracts as prey, anti-LIFR Western blot
[2] = target: T2, V5-His-tagged murine soluble LIFR, …; experiment: GST pull-down, HEK supernatant with msLIFR as prey, anti-V5 Western blot
[3] = target: iodinated murine LIF (125I-mLIF) (mouse, UniProt P09056 24-203); experiment: radioligand binding on transfected Ba/F3 cells
[4] = target: murine LIF, unlabelled (mouse, UniProt P09056 24-203); experiment: displacement of 125I-mLIF from Ba/F3 cells transfected with LIFRα and gp130

binding result [1]	binding result [2]	binding result [3]	binding result [4]	Binder
no binding	no binding			GST fusion protein of mature murine EPO, expressed in E. coli (ligand, mouse, UniProt P07321 27-192, looked up, mature; also called GST-matmEPO; matmE; not shown: N-terminal GST tag from pGEX-6P-1) APPRLICDSRVLERYILEAKEAENVTMGCAEGPRLSENITVPDTKVNFYAWKRMEVEEQAIEVWQGLSLLSEAILQAQALLANSSQPPETLQLHIDKAISGLRSLTSLLRVLGAQKELMSPPDTTPPAPLRTLTVDTFCKLFRVYANFLRGKLKLYTGEVCRRGDR
		binds	binds	heterodimeric LIF receptor (murine gp130 and LIFRα) on transiently transfected Ba/F3 cells (receptor, whole, on cells; Also used here for the endogenous LIFR of murine M1 cells in the proliferation assay; also called classical LIFR; LIFRα/gp130) chain 1: QLLEPCGYIYPEFPVVQRGSNFTAICVLKEACLQHYYVNASYIVWKTNHAAVPREQVTVINRTTSSVTFTDVVLPSVQLTCNILSFGQIEQNVYGVTMLSGFPPDKPTNLTCIVNEGKNMLCQWDPGRETYLETNYTLKSEWATEKFPDCQSKHGTSCMVSYMPTYYVNIEVWVEAENALGKVSSESINFDPVDKVKPTPPYNLSVTNSEELSSILKLSWVSSGLGGLLDLKSDIQYRTKDASTWIQVPLEDTMSPRTSFTVQDLKPFTEYVFRIRSIKDSGKGYWSDWSEEASGTTYEDRPSRPPSFWYKTNPSHGQEYRSVRLIWKALPLSEANGKILDYEVILTQSKSVSQTYTVTGTELTVNLTNDRYVASLAARNKVGKSAAAVLTIPSPHVTAAYSVVNLKAFPKDNLLWVEWTPPPKPVSKYILEWCVLSENAPCVEDWQQEDATVNRTHLRGRLLESKCYQITVTPVFATGPGGSESLKAYLKQAAPARGPTVRTKKVGKNEAVLAWDQIPVDDQNGFIRNYSISYRTSVGKEMVVHVDSSHTEYTLSSLSSDTLYMVRMAAYTDEGGKDGPEFTFTTPKFAQGEIEAIVVPVCLAFLLTTLLGVLFCFNKRDLIKKHIWPNVPDPSKSHIAQWSPHTPPRHNFNSKDQMYSDGNFTDVSVVEIEANNKKPCPDDLKSVDLFKKEKVSTEGHSSGIGGSSCMSSSRPSISSNEENESAQSTASTVQYSTVVHSGYRHQVPSVQVFSRSESTQPLLDSEERPEDLQLVDSVDGGDEILPRQPYFKQNCSQPEACPEISHFERSNQVLSGNEEDFVRLKQQQVSDHISQPYGSEQRRLFQEGSTADALGTGADGQMERFESVGMETTIDEEIPKSYLPQTVRQGGYMPQ chain 2: LKRGVQDLKCTTNNMRVWDCTWPAPLGVSPGTVKDICIKDRFHSCHPLETTNVKIPALSPGDHEVTINYLNGFQSKFTLNEKDVSLIPETPEILDLSADFFTSSLLLKWNDRGSALPHPSNATWEIKVLQNPRTEPVALVLLNTMLSGKDTVQHWNWTSDLPLQCATHSVSIRWHIDSPHFSGYKEWSDWSPLKNISWIRNTETNVFPQDKVVLAGSNMTICCMSPTKVLSGQIGNTLRPLIHLYGQTVAIHILNIPVSENSGTNIIFITDDDVYGTVVFAGYPPDVPQKLSCETHDLKEIICSWNPGRITGLVGPRNTEYTLFESISGKSAVFHRIEGLTNETYRLGVQMHPGQEIHNFTLTGRNPLGQAQSAVVINVTERVAPHDPTSLKVKDINSTVVTFSWYLPGNFTKINLLCQIEICKANSKKEVRNATIRGAEDSTYHVAVDKLNPYTAYTFRVRCSSKTFWKWSRWSDEKRHLTTEATPSKGPDTWREWSSDGKNLIVYWKPLPINEANGKILSYNVSCSLNEETQSVLEIFDPQHRAEIQLSKNDYIISVVARNSAGSSPPSKIASMEIPNDDITVEQAVGLGNRIFLTWRHDPNMTCDYVIKWCNSSRSEPCLLDWRKVPSNSTETVIESDQFQPGVRYNFYLYGCTNQGYQLLRSIIGYVEELAPIVAPNFTVEDTSADSILVKWDDIPVEELRGFLRGYLFYFQKGERDTPKTRSLEPHHSDIKLKNITDISQKTLRIADLQGKTSYHLVLRAYTHGGLGPEKSMFVVTKENSVGLIIAILIPVAVAVIVGVVTSILCYRKREWIKETFYPDIPNPENCKALQFQKSVCEGSNALKTLEMNPCTPNNVEVLESRSIVPKIEDTEIISPVAERPGERSEVDPENHVVVSYCPPIIEEEITNPAADEVGGASQVVYIDVQSMYQPQAKAEEEQDVDPVVVAGYKPQMRLPISPAVEDTAAEDEEGKTAGYRPQANVNTWNLVSPDSPRSTDSNNEVVSFGSPCSINSRQFLIPPKDEDSPKSNGGGWSFTNFFQNKPND
